This note sets out measurements from US20120064547A1 (PROBIODRUG, published 2012).

Where no end group is shown, it is not given here. [ ]: non-standard residue; d: D form. pGlu = O=C1CC[C@@H](C(=O)O)N1

Assay [1] deals with Aβ 1-42. Kind of assay: N3pE sandwich ELISA (4G8 capture, 6-1-6 detection), peptide at 25 pg/ml. Background: ELISA stands for enzyme-linked immunosorbent assay.
Description: (§1) A 96-well maxisorb plate (Nunc) was coated with capture antibody by incubation of 100 μl per well of 2 μg/ml anti-Aβ antibody 4G8, diluted in D-PBS, overnight at 4° C. The plated was sealed. The coating solution was removed and the surface of the plate was blocked with 200 μl per well PIERCE Protein-free ELISA-Blocker (without Tween-20) for 2 hours at room temperature. Afterwards the plate was washed with 6-times with TBS+0.05% (v/v) Tween-20. Remaining washing solution was removed by tapping of the plate. […] 100 μl of every concentration and 100 μl of dilution buffer (Blank) were pipetted on the plate. The plate was sealed and incubated at 4° C. for 2 hours. Afterwards the plate was washed 6-times with TBS+0.05% (v/v) Tween-20. Remaining washing solution was removed by tapping of the plate. […] The plate was sealed and incubated at 4° C. for 1 hour. Afterwards the plate was washed 6-times with TBS+0.05% (v/v) Tween-20. Remaining washing solution was removed by tapping of the plate. In every well 100 μl SureBlue substrate solution (KPL) were pipetted and the plate was incubated in the dark at room temperature for 30 min. The reaction was stopped by addition of 100 μl per well of 1 M H₂SO₄. The absorbance was measured with TECAN Sunrise at 450 nm corrected by the absorbance at 540 nm.
The target in assay [2] is T1, Aβ 4-40.
T1 construct: No entry of its own
Described as above.
Description: as §1

The target in assay [3] is Aβ 1-42. Kind of assay: N3pE sandwich ELISA (4G8 capture, 6-1-6 detection), peptide at 800 pg/ml.
Description: as §1
The target of assay [4] is T2, Aβ pE11-40 (N-terminal Glu (position 11 of Aβ) cyclized to pyroglutamate).
T2 construct: No entry of its own
T2 peptide: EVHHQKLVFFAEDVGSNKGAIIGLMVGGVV
The description is as above.
Description: as §1

Assay [5] addresses T1, Aβ 4-40. The description is as above.
Description: as §1
Assay [6] deals with T3, PepSpot peptide No. 5 EFRHDSGYEVHHQ
T3 construct: Spotted on a PepSpot membrane; also called spot number 5
T3 peptide: EFRHDSGYEVHHQ
Kind of assay: PepSpot peptide membrane.

The target of assay [7] is T4, PepSpot peptide No. 7 FRHDSGYEVHHQK
T4 construct: Spotted on a PepSpot membrane; also called spot number 7
T4 peptide: FRHDSGYEVHHQK
Kind of assay: PepSpot peptide membrane.

For assay [8], the target named is T5, PepSpot peptide No. 6 pEFRHDSGYEVHHQ
T5 construct: Spotted on a PepSpot membrane; also called spot number 6; the specific Aβ N3pE-x spot
T5 peptide: [pGlu]FRHDSGYEVHHQ
Kind of assay: PepSpot peptide membrane.

The target in assay [9] is Aβ 1-42. Kind of assay: N3pE sandwich ELISA (4G8 capture, 6-1-6 detection), peptide at 12.5 pg/ml.
Description: as §1
Assay [10] has as its target T2, Aβ pE11-40. The description is as above.
Description: as §1
The target in assay [11] is T1, Aβ 4-40. The assay is described as above.
Description: as §1

B1: Aβ 6-1-6 (monoclonal antibody of hybridoma cell line 6-1-6, DSM ACC 2924) (antibody, V domains shown)
VH: EVQLQQSGPELVKPGASMKISCKASGYSFTGYTMNWVKQSHGKNLEWIGLINPYNGVTRYNQKFKGKATLIVDKSSSTAYMELLSLTSEDSAVYYCTREAKREWDETYWGQGTLVTVSA
VL: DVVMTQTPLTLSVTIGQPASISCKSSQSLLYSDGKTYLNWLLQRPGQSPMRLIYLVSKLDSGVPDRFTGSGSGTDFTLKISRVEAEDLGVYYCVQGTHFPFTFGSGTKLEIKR
notes: Mouse hybridoma IgG; The entries as printed begin with a leader and end with the first residues of the constant region; Heavy chain amplified with primer MHCG1, light chain with MKC; also called clone 6-1-6; N3pE antibody clone 6-1-6
As for B1, the “absorbance (450 nm corrected by 540 nm)” value with Aβ 1-42 [1] is 0.048 absorbance; in the assay with Aβ 4-40 [2] it was 0.044 absorbance; with Aβ 1-42 [3], 0.053 absorbance; with Aβ pE11-40 [4], 0.047 absorbance; in the assay with Aβ 4-40 [5], 0.055 absorbance; in the assay with Aβ 1-42 [9], 0.043 absorbance. The “absorbance (450 nm corrected by 540 nm)” value in the assay with Aβ pE11-40 [10] is 0.046 absorbance; with Aβ 4-40 [11] it was 0.04 absorbance. The binding result in assay [6], in [7] and in assay [8] was “binds” throughout.
